Measurements from the RNAGym collection of RNA variant scans (doi:10.7554/elife.80360).

B1: HDV Ribozyme (parent)
chain: GGCCGGCAUGGUCCCAGCCUCCUCGCUGGCGCCGGCUGGGCAACAUUCCGAGGGGACCGUCCCCUCGGUAAUGGCGAAUGGGACCCA

Variants of: B1
Experiment: self-cleavage, relative activity (ratio to wild type); higher = more cleavage; co-transcriptional

Compared with GGCCGGCAUGGUCCCAGCCUCCUCGCUGGCGCCGGCUGCGCAACAUUCCGAGGGGACCGUCCCCUCGGUAAUGGCGAAUGGGACCCG, GGCCGGCAUGGUCCCAGCCUCCUCGCUGGCGCCGGCUGCGCAACAUUCCGAGGGGACCGUCCCCUCGGUAAUGGCGAAUGGGACCCC is higher in self-cleavage: 0.204 for the first, 0.323 for the second.

Compared with GGCCGGCAUGGUCCCAGCCUCCUCGCUGGCGCCGGCUGCGCAACAUUCCGAGGGGGCCGUCCCCUCGGUAAUGGCGAAUGGGACCCA, GGCCGGCAUGGUCCCAGCCUCCUCGCUGGCGCCGGCUGCGCAACAUUCCGAGGGGUCCGUCCCCUCGGUAAUGGCGAAUGGGACCCA is lower in self-cleavage: 0.356 for the first, 0.13 for the second.

Compared with GGCCGGCAUGGUCCCAGCCUCCUCGCUGGCGCCGGCUGCGCAACAUUCCGAGGGGCCCGUCCCCUCGGUAAUGGCGAAUGGGACCCA, GGCCGGCAUGGUCCCAGCCUCCUCGCUGGCGCCGGCUGAGCAACAUUCCGAGGGGACCGUCCCCUCGGUAAAGGCGAAUGGGACCCA is lower in self-cleavage: 0.18 for the first, 0.133 for the second.

First: GGCCGGCAUGGUCCCAGCCUCCUCGCUGGCGCCGGCUGCGCAACAUUCCGAGGGGACGGUCCCCUCGGUAAUGGCGAAUGGGACCCA
Second: GGCCGGCAUGGUCCCAGCCUCCUCGCUGGCGCCGGCUGCGCAACAUUCCGAGGGGACCGUCCCCUCGGUAAUGGCGAUUGGGACCCA
The self-cleavage of the first is higher: 0.277 for the first, 0.131 for the second.

First: GGCCGGCAUGGUCCCAGCCUCCUCGCUGGCGCCGGCUGAGCAACAUUCCGAGGAGACCGUCCCCUCGGUAAUGGCGAAUGGGACCCA
Second: GGCCGGCAUGGUCCCAGCCUCCUCGCUGGCGCCGGCUGAGCAACAUUCCGAGGGGACCGUCCCCUCGGUAAUGGCGAAUGGAACCCA
The self-cleavage of the first is higher: 0.54 for the first, 0.136 for the second.

First: GGCCGGCAUGGUCCCAGCCUCCUCGCUGGCGCCGGCUGAGCAACAUUCCGAGGGGACCGUCCCCUCGGUAAUGGCGAAUGGCACCCA
Second: GGCCGGCAUGGUCCCAGCCUCCUCGCUGGCGCCGGCUGAGCAACAUUCCGAGGGGACCGUCCCCUCGGUAAUGGCCAAUGGGACCCA
The self-cleavage of the first is lower: 0.128 for the first, 0.57 for the second.

First: GGCCGGCAUGGUCCCAGCCUCCUCGCUGGCGCCGGCUGAGCAACAUUCCGAGGGGACCGUCCCCUCGGUAAUGGCUAAUGGGACCCA
Second: GGCCGGCAUGGUCCCAGCCUCCUCGCUGGCGCCGGCUGAGCAACAUUCCGAGGGGACCGUCCCCUCGGAAAUGGCGAAUGGGACCCA
The self-cleavage of the first is higher: 0.873 for the first, 0.443 for the second.

Compared with GGCCGGCAUGGUCCCAGCCUCCUCGCUGGCGCCGGCUGAGCAACAUUCCGAGGGGACCGUCCCCUCGGCAAUGGCGAAUGGGACCCA, GGCCGGCAUGGUCCCAGCCUCCUCGCUGGCGCCGGCUGAGCAACAUUCCGAGGGGACCGUCCCCUCGGGAAUGGCGAAUGGGACCCA is lower in self-cleavage: 0.609 for the first, 0.305 for the second.

Going from GGCCGGCAUGGUCCCAGCCUCCUCGCUGGCGCCGGCUGCGCACCAUUCCGAGGGGACCGUCCCCUCGGUAAUGGCGAAUGGGACCCA to GGCCGGCAUGGUCCCAGCCUCCUCGCUGGCGCCGGCUGCGCAUCAUUCCGAGGGGACCGUCCCCUCGGUAAUGGCGAAUGGGACCCA, the self-cleavage falls from 0.138 to 0.

Compared with GGCCGGCAUGGUCCCAGCCUCCUCGCUGGCGCCGGCUGCGCAGCAUUCCGAGGGGACCGUCCCCUCGGUAAUGGCGAAUGGGACCCA, GGCCGGCAUGGUCCCAGCCUCCUCGCUGGCGCCGGCUGCGCAACAUUCCGAGGGGACCGUCCCCUCGGUAAUGGCGAAUGGGACCCA is higher in self-cleavage: 0.147 for the first, 0.245 for the second.

First: GGCCGGCAUGGUCCCAGCCUCCUCGCUGGCGCCGGCUGAGCAACAUUCCGAGGGGACCGUCCCCUCGAUAAUGGCGAAUGGGACCCA
Second: GGCCGGCAUGGUCCCAGCCUCCUCGCUGGCGCCGGCUGCGCAACAUUGCGAGGGGACCGUCCCCUCGGUAAUGGCGAAUGGGACCCA
The self-cleavage of the first is higher: 0.415 for the first, 0.262 for the second.

Going from GGCCGGCAUGGUCCCAGCCUCCUCGCUGGCGCCGGCUGCGCAACAUUUCGAGGGGACCGUCCCCUCGGUAAUGGCGAAUGGGACCCA to GGCCGGCAUGGUCCCAGCCUCCUCGCUGGCGCCGGCUGCGCAACAUUCCGAGGGGACCGUACCCUCGGUAAUGGCGAAUGGGACCCA, the self-cleavage falls from 0.405 to 0.192.

Compared with GGCCGGCAUGGUCCCAGCCUCCUCGCUGGCGCCGGCUGAGCAACAUUCCGAGGGCACCGUCCCCUCGGUAAUGGCGAAUGGGACCCA, GGCCGGCAUGGUCCCAGCCUCCUCGCUGGCGCCGGCUGAGCAACAUUCCGAGCGGACCGUCCCCUCGGUAAUGGCGAAUGGGACCCA is lower in self-cleavage: 0.443 for the first, 0.383 for the second.

Going from GGCCGGCAUGGUCCCAGCCUCCUCGCUGGCGCCGGCUGAGCAACAUUCCGAGAGGACCGUCCCCUCGGUAAUGGCGAAUGGGACCCA to GGCCGGCAUGGUCCCAGCCUCCUCGCUGGCGCCGGCUGCGCAACAUUCCGAGGGGACCGUCUCCUCGGUAAUGGCGAAUGGGACCCA, the self-cleavage falls from 0.632 to 0.237.

Compared with GGCCGGCAUGGUCCCAGCCUCCUCGCUGGCGCCGGCUGCGGAACAUUCCGAGGGGACCGUCCCCUCGGUAAUGGCGAAUGGGACCCA, GGCCGGCAUGGUCCCAGCCUCCUCGCUGGCGCCGGCUGAGCAACAUUCCGAGGGGACCGUCCCCUCGGUAAUCGCGAAUGGGACCCA is lower in self-cleavage: 0.462 for the first, 0.205 for the second.

Going from GGCCGGCAUGGUCCCAGCCUCCUCGCUGGCGCCGGCUGAGCAACAUUCCGAGGGGACCGUCCCCUCGGUAAUGGCGAAUUGGACCCA to GGCCGGCAUGGUCCCAGCCUCCUCGCUGGCGCCGGCUGAGCAACAUUCCGAGGGGACCGUCCCCUCGGUAAUGGCGAAUAGGACCCA, the self-cleavage rises from 0.178 to 0.229.
